What was measured:
[1] = target: T1, human FRα on cells (human, UniProt P15328 25-234); assay: cell-based or functional assay
[2] = target: T1, human FRα on cells; assay: flow cytometry on IGROV-1 cells (endogenous FRα), apparent Kd

T1 sequence (P15328 25-234): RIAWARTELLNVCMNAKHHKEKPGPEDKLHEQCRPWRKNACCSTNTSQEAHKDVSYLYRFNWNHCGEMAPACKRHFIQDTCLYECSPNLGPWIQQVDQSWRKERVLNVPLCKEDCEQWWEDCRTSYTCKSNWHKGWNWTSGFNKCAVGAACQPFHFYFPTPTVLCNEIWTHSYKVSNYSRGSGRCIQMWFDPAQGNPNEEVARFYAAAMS

B1: mirvetuximab (v17716) (antibody, V domains shown)
VH: QVQLVQSGAEVVKPGASVKISCKASGYTFTGYFMNWVKQSPGQSLEWIGRIHPYDGDTFYNQKFQGKATLTVDKSSNTAHMELLSLTSEDFAVYYCTRYDGSRAMDYWGQGTTVTVSS
VL: DIVLTQSPLSLAVSLGQPAIISCKASQSVSFAGTSLMHWYHQKPGQQPRLLIYRASNLEAGVPDRFSGSGSKTDFTLTISPVEAEDAATYYCQQSREYPYTFGGGTKLEIK
internalized fluorescence relative to v30384, 25 nM, 5-hour incubation, IGROV-1 cells [1]: 0.5 fold
Kd [2]: 0.69 nM
